Consider three compounds from PMC7198388, “Radiohybrid Ligands: A Novel Tracer Concept Exemplified by ^18F- or ^68Ga-Labeled rhPSMA Inhibitors” (Journal of Nuclear Medicine, 2020).

For data set [1], the system named is LNCaP tumor-bearing male CB-17 SCID mice. Conditions: 1 h p.i., mean ± SD, n = 4, cited from earlier work. How it is done: page 21: 9. Supplemental Data 2 Supplemental Table 2. Biodistribution of 68Ga-19F-rhPSMA-7 to 10, 18F-rhPSMA-7 and the reference ligands 18F-DCFPyL and 18F-PSMA-1007 at 1 h p.i. in LNCaP tumor-bearing SCID mice (n=3 for 68Ga-19F-rhPSMA-7 to 9, n=3 for 18F-rhPSMA-7, n=4 for 68Ga-19F-rhPSMA-10, 18F-DCFPyL and 18F-PSMA- 1007). Data for reference ligands were taken from a previously published study by our group (3). Values are expressed as a percentage of injected dose per gram (%ID/g), mean ± standard deviation. 18 18 68Ga-natF- 68Ga-natF- 68Ga-natF- 68Ga-natF- 18F-rhPSMA-7 Organ F-DCFPyL F-PSMA- ...

In a further data set the target is T1, human serum albumin (Homo sapiens, UniProt P02768).
T1 construct: purchased Daicel H13H-2433
The settings on record: affinity HPLC, Chiralpak HSA column; 19F reference ligands; cited from earlier work. How it is done: Binding to HSA was assessed by means of a recently described HPLC method (Fig. 3D) ([34]). […] Supplemental Data 1 Supplemental Table 1.

Data set [2] has as its system LNCaP cells. Conditions: 1 h, 37°C, % of (125I-I-BA)KuE, 18F reference ligands, mean ± SD, n = 3; cited from earlier work. An excerpt: page 20: 8. Supplemental Data 1 Supplemental Table 1.
Data set [3] concerns LNCaP cells. The data set can be described thus: Internalization into LNCaP cells, normalized to (125I-I-BA)KuE. In kind it is cell-based, human. The settings on record: LNCaP cells 1.25 x 10^5/well, 1 h, 37°C, ligand 0.5 nM/well; % of specific internalization of (125I-I-BA)KuE; 68Ga-19F or 18F free-chelator form; mean ± SD, n = 3. How it is done:
Internalization studies were carried out according to a previously published procedure (1). Briefly, LNCaP cells were harvested 24 ± 2 hours before the experiment and seeded in poly -L-lysine coated 24-well plates […]
After removal of the culture medium, the cells were washed once with 500 µL DMEM -F12 (5% BSA) and left to equilibrate for at least 15 min at 37 °C in 200 µL DMEM-F12 (5% BSA). Each well was treated with either 25 µL of either DMEM-F12 (5% BSA, control) or 25 µL of a 100 µM PMPA (2-(Phosphonomethyl)-pentandioic acid, Tocris Bioscience, Bristol, UK) solution in PBS, for blockade. Next, 25 µL of the radioactive-labelled PSMA inhibitor (5.0 nM in PBS) was added and the cells were incubat ed at 37 °C for 60 min. The experiment was terminated by placing the 24 -well plate on ice for 3 min and consecutive removal of the medium. Each well was carefully washed with 250 µL of ice-cold HBSS. Both fractions from the first steps, representing the amount of free radioligand, were combined. Removal of surface bound activity was accomplished by incubation of the cells with 250 µL of ice-cold PMPA (10 µM in PBS) solution for 5 min […]
and rinsed again with another 250 µL of ice-cold PBS. The internalized activity was determined by incubation of the cells in 250 µL 1 M aqueous NaOH for at least 10 min. The obtained fractions were combined with those of the subsequent wash step with 250 µL 1 M aqueous NaOH. Each experiment (control and blockade) was performed in triplicate. Free, surface bound and internalized activity was quantified in a γ-counter. All internalization studies were accompanied by external reference studies, using […]
Data were corrected for non-specific

Data set [4] can be described thus: Lipophilicity, n-octanol/PBS partition coefficient. The class given is physicochemical. Conditions: pH 7.4. The method, then:
Approximately 1 MBq of the labeled tracer was dissolved in 1 mL of a 1:1 mixture (v/v) of PBS (pH 7.4) and n-octanol in a reaction vial (n = 6). After vigorous mixing of the suspension for 3 min at r.t., the vial was centrifuged at 15,000g for 3 min (Biofuge 15, Heraus Sepatech), and 100 μL aliquots of both layers were measured in a γ-counter.

A short description of data set [5]: Biodistribution in LNCaP tumor-bearing CB-17 SCID mice. The settings on record: male, mouse, in vivo, iv, 0.2 nmol, total radioactivity, Biodistribution. An excerpt: Mice were used for experiments when tumors had grown to a diameter of 5–10 mm (3–6 wk after inoculation).
Selected organs were removed, weighed, and measured in a γ-counter.

The next data set concerns the target T2, PSMA (Homo sapiens, UniProt Q04609).
T2 construct: PSMA-positive LNCaP cells (300265; Cell Lines Service) were cultivated; host or cells: LNCaP human prostate carcinoma cells
The data set can be described thus: Competitive binding (IC50) on LNCaP cells with (125I-I-BA)KuE as radioligand. Conditions: LNCaP cells 1.5 x 10^5/well, 1 h, 4°C, (125I-I-BA)KuE 0.2 nM/well, HBSS 1% BSA; natGa-19F or 19F free-chelator form; mean ± SD, n = 3. How it is done:
Data were corrected for nonspecific binding and normalized to the specific-internalization observed for the radioiodinated reference compound (n = 3). […]
with water (10 mL). The purified product was eluted with 50% aqueous ethanol (2 mL), phosphate buffered saline (PBS, 1 mL) and again water (1 mL). After removing ethanol in vacuo, purity of the radiolabelled compounds was determined by radio-HPLC and radio-TLC (ITLC-SG chromatography paper, mobile phase: 0.1 M trisodium citrate and Silica gel 60 RP-18 F254s, mobile phase: 3:2 mixture (v/v) of MeCN in H2O supplemented with 10% of 2 M NaOAc solution and 1% of TFA).
6. Human Serum Albumin (HSA) Binding
HSA binding of the PSMA-addressing ligands was determined according to a previously published procedure via HPLC (7). A Chiralpak HSA column (50 x 3 mm, 5 μm, H13H-2433, Daicel, Tokyo, Japan) […]
literature, in the range of 13 to 99% (7,8). All substances, including the examined PSMA ligands, were […]
final concentration of 0.5 mg/mL.
(Northampton, United States).
Affinity determinations (IC50)
The PSMA affinity (IC50) determinations and synthesis of the radioiodinated reference ligand (((S)-1- […]
described previously (1). Briefly, the respective ligand was diluted (serial dilution 10-4 to 10-10) in Hank’s balanced salt solution (HBSS, Biochrom). […]
(1% BSA). […] Quantification of all collected fractions was accomplished in a γ - counter. […]

Read-outs that look alike come from different tables or passages of the source.

T1 sequence (P02768 25-609): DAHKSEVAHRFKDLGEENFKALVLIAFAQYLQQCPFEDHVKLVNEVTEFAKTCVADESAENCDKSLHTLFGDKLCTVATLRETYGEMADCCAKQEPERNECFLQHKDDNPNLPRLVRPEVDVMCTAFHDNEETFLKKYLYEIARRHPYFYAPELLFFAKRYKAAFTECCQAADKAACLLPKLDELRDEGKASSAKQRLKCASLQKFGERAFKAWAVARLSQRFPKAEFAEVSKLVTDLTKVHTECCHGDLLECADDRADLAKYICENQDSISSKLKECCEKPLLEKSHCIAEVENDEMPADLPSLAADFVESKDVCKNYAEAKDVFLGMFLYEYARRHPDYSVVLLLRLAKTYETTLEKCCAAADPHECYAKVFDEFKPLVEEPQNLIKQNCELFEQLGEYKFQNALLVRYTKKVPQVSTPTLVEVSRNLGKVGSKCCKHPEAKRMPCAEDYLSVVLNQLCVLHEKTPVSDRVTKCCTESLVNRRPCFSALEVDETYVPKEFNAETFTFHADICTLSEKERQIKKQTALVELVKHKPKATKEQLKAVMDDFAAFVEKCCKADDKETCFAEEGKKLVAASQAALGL
T2 sequence (Q04609 whole entry): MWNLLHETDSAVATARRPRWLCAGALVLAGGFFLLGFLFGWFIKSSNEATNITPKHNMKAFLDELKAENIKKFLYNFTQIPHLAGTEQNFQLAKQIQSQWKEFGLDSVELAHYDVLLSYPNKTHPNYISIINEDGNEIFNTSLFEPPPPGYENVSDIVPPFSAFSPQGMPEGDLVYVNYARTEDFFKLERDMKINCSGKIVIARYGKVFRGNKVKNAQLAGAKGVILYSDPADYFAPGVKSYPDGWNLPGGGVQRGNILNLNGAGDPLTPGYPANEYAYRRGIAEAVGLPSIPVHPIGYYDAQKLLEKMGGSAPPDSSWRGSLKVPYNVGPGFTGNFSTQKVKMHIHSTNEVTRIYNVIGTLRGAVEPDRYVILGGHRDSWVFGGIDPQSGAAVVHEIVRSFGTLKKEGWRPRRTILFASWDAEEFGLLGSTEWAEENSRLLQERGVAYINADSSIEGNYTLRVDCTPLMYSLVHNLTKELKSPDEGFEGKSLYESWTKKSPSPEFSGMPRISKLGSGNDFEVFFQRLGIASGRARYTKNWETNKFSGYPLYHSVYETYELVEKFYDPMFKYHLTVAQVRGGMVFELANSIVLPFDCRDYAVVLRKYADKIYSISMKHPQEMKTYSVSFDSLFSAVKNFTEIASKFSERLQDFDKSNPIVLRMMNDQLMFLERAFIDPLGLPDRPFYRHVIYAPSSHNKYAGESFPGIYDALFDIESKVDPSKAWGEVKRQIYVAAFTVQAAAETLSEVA

Consider `O=C(O)CCC(NC(=O)NC(CCCCNC(=O)c1ccc([18F])nc1)C(=O)O)C(=O)O` (centres unmarked) [19/18F-DCFPyL, 2-(3-{1-Carboxy-5-[(6-[^18F]fluoro-pyridine-3-carbonyl)-amino]-pentyl}-ureido)-pen tanedioic acid], for which, in data set [1], the “Biodistribution, Adrenals” value is given as 5.0 ± 4.0 %ID/g; the “Biodistribution, Blood” value is 0.34 ± 0.30 %ID/g; the “Biodistribution, Bone” value was 0.12 ± 0.02 %ID/g; the “Biodistribution, Heart” value is reported as 0.25 ± 0.09 %ID/g. For the same compound, in data set [1], the “Biodistribution, Intestine” value is 0.14 ± 0.02 %ID/g; the “Biodistribution, Kidneys” value is 152.4 ± 15.3 %ID/g; the “Biodistribution, Liver” value is on record as 1.7 ± 0.2 %ID/g; the “Biodistribution, Lung” value is listed as 0.46 ± 0.05 %ID/g. For the same compound, in data set [1], the “Biodistribution, Muscle” value is listed as 0.11 ± 0.02 %ID/g; the “Biodistribution, Pancreas” value is recorded as 0.20 ± 0.10 %ID/g; the “Biodistribution, Spleen” value is listed as 9.6 ± 4.4 %ID/g; the “Biodistribution, Stomach” value is 0.20 ± 0.03 %ID/g. Further, in data set [1] (LNCaP tumor), the “Biodistribution, Tumor” value was 7.3 ± 1.5 %ID/g. Further, the HSA-binding at human serum albumin is 14%. Further, the Internalization in the data set with LNCaP cells [2] is recorded as 118 ± 4 % of reference.

As to `CC(C)(C)[Si](F)(c1ccc(C(=O)NC[C@@H](NC(=O)CCC(C(=O)O)N2CCN(CC(=O)O)CCN(CC(=O)O)CCN(CC(=O)O)CC2)C(=O)N[C@H](CCCCNC(=O)CCC(=O)NCCC[C@@H](NC(=O)CC[C@H](NC(=O)N[C@@H](CCC(=O)O)C(=O)O)C(=O)O)C(=O)O)C(=O)O)cc1)C(C)(C)C` (some centres unmarked) [68/natGa-19/18F-rhPSMA-7, metal not drawn], the Internalization in the data set on LNCaP cells [3] is listed as 126 ± 13 % of reference. Moreover, in data set [4], the “Lipophilicity log PO/PBS” value is on record as “- 3.2 ± 0.05”. The tissue uptake at 1 h amounted to 6.7 ± 2.2 %ID/g in data set [5] (Adrenals); 1.9 ± 0.1 %ID/g in data set [5] (Blood); 0.52 ± 0.11 %ID/g in data set [5] (Bone); 1.2 ± 0.3 %ID/g in data set [5] (Heart); 0.43 ± 0.07 %ID/g in data set [5] (Intestine); 34.1 ± 6.6 %ID/g in data set [5] (Kidneys). Besides, the tissue uptake at 1 h turned out to be 0.77 ± 0.1 %ID/g in data set [5] (Liver); 1.7 ± 0.2 %ID/g in data set [5] (Lung); 0.42 ± 0.22 %ID/g in data set [5] (Muscle); 0.71 ± 0.11 %ID/g in data set [5] (Pancreas); 13.8 ± 5 %ID/g in data set [5] (Spleen); 0.51 ± 0.07 %ID/g in data set [5] (Stomach). The tissue uptake at 1 h in data set [5] (Tumor) was determined as 8.6 ± 0.2 %ID/g.

For the compound `CC(C)(C)[Si](F)(c1ccc(C(=O)NC[C@@H](NC(=O)CN2CCN(CC(=O)O)CCN(CC(=O)O)CCN(CC(=O)O)CC2)C(=O)N[C@H](CCCCNC(=O)CCC(=O)NCCC[C@@H](NC(=O)CC[C@H](NC(=O)N[C@@H](CCC(=O)O)C(=O)O)C(=O)O)C(=O)O)C(=O)O)cc1)C(C)(C)C` [68/natGa-19F-rhPSMA-10, metal not drawn], the 50% inhibitory concentration (IC50) on PSMA turned out to be 3.8 ± 0.3 nM. Also, the tissue uptake at 1 h in data set [5] (Adrenals) is 2.2 ± 0.3 %ID/g; in data set [5] (Blood), 1.5 ± 0.3 %ID/g; in data set [5] (Bone), 0.35 ± 0.13 %ID/g; in data set [5] (Heart) it was 0.75 ± 0.13 %ID/g; in data set [5] (Intestine), 0.47 ± 0.21 %ID/g; in data set [5] (Kidneys) it was 77.5 ± 13.6 %ID/g. The tissue uptake at 1 h in data set [5] (Liver) worked out at 0.7 ± 0.2 %ID/g; in data set [5] (Lung), 1.3 ± 0.2 %ID/g; in data set [5] (Muscle), 0.33 ± 0.1 %ID/g; in data set [5] (Pancreas) it was 0.51 ± 0.03 %ID/g; in data set [5] (Spleen), 9.4 ± 1.6 %ID/g; in data set [5] (Stomach), 0.42 ± 0.12 %ID/g. For the same compound, the tissue uptake at 1 h in data set [5] (Tumor) is 11.7 ± 1.9 %ID/g.

Broadly, the tissue uptake is the percentage of the injected dose found per gram of tissue. As a reminder, the IC50 is the midpoint of a concentration-inhibition curve. A lower IC50 goes with higher potency.
